Test results reported in the supplement of paper PMC10567573.
± gives the standard deviation.

Experiment: protein stability index of a GFP-peptide fusion (GPS, HEK-293T) (PSI 1-6); higher = more stable
[1] = treatment: DMSO, c terminus: a fixed tail appended
[2] = treatment: MLN4924 1 uM, 8 h, c terminus: a fixed tail appended
[3] = treatment: MLN4924 1 uM, 8 h, c terminus: native
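Note: 24-mer peptide tiles fused after GFP, lentivirally expressed, FACS-sorted into six equal bins by GFP/DsRed ratio, decoded by Illumina sequencing, PSI is the read-weighted mean bin number.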

Row | Sequence | protein stability index [1] | protein stability index [2] | protein stability index (treatment: DMSO, c terminus: native) | protein stability index [3]
1 | AAFEEFDTDRDGYISHRELGDCMR [CABP4] | 4.25 ± 0.17 | 4.3 ± 0.36 | – | –
2 | AALCALGKDCFLELAPDFVGDILW [ETS1] | 2.51 ± 0.41 | 2.95 ± 0.77 | – | –
3 | AAQEGEDEGASAGQGPKPEADSQE [GAGE1] | 5.67 ± 0.17 | 5.64 ± 0.24 | – | –
4 | AASPQDLAGGYTSSLACHRALQDA [MNAT1] | 4.21 ± 0.25 | 4.24 ± 0.37 | – | –
5 | AASSYSFSDLNSTRGDADMYDLPK [EMD] | 4.43 ± 0.23 | 4.53 ± 0.26 | – | –
6 | ACLLQLAEIQEACCEFLKRQLDPS [KLHL20] | 2.32 ± 0.58 | 2.16 ± 0.053 | – | –
7 | ADEQLHCAGKAKRSGGHAPRVREL [ESR2] | 4.45 ± 0.26 | 4.39 ± 0.3 | – | –
8 | AECALNERGVEGDFLIRDSESSPS [NCK2] | 5.42 ± 0.33 | 5.48 ± 0.2 | – | –
9 | AEQLRIELNAEKFKNSLLQKELKK [WEE1] | 3.88 ± 0.28 | 3.94 ± 0.42 | – | –
10 | AESLKGKLEEERAKLHDVELHQVA [GNB5] | 5.02 ± 0.33 | 5.23 ± 0.29 | – | –
11 | AFPFNMQELVLKVRIQNPSLREND [ANKRD40] | 2.41 ± 0.46 | 2.33 ± 0.41 | – | –
12 | AFQNDVYEWARDHRAHHKFSETHA [SCD] | 2.65 ± 0.22 | 2.69 ± 0.33 | – | –
13 | AFSNRSKQLRRQMWWRGCKIKAIM [VAMP4] | 2.35 ± 0.082 | 2.44 ± 0.27 | – | –
14 | AGEGRLGHKRKQPLPKRVAKVPRP [FOXJ1] | 4.53 ± 0.45 | 4.36 ± 0.43 | – | –
15 | AGGEKGPQAFPMSRLWDSRLRHYL [DNAAF3] | 2.12 ± 0.077 | 2.54 ± 0.065 | – | –
16 | AGRLMRPSVKYLSHPRVQSGCDKE [RNF180] | 4.06 ± 0.21 | 4.11 ± 0.21 | – | –
17 | AGRWLWGAQPCLLLPIVPLSWLVW [ADAMTS4] | 2.98 ± 1.5 | 3.24 ± 2.6 | – | –
18 | AGSSTWERYFIPVSCFLTFNIFDW [SLC29A1] | 3.09 ± 0.2 | 3.05 ± 0.58 | – | –
19 | AHHRSGAQVFPESPESESDHEHEE [GNAS] | 5.63 ± 0.24 | 5.54 ± 0.26 | – | –
20 | AIFSAPAFPAAVSSMKKFCRPLLP [PSD2] | 2.58 ± 0.12 | 2.3 ± 0.28 | – | –
21 | AILYYYQSGGRLRRPVNVPLDMFS [KCNA1] | 2.69 ± 0.84 | 2.29 ± 0.42 | – | –
22 | AISVVGVSAGGHTLSRPPPAQVPR [TFE3] | 3.38 ± 0.24 | 3.35 ± 0.24 | – | –
23 | AKKFRKAVTDLLGRRQRKSEKRRD [WASL] | 3.88 ± 0.52 | 3.89 ± 0.2 | – | –

Row | Sequence | protein stability index [1] | protein stability index [2] | protein stability index (treatment: DMSO, c terminus: native) | protein stability index [3]
24 | ALAGYTGSGPIQLWQFLLELLTDK [ETS1] | 2.35 ± 0.13 | 2.48 ± 0.31 | – | –
25 | ALARDLLSETADPFFVLNSDVICD [GMPPB] | 3.07 ± 0.069 | 3.32 ± 0.26 | – | –
26 | ALFFKNIMNIIDIVSILPYFITLG [KCNA4] | 2.86 ± 0.21 | 3.43 ± 0.4 | – | –
27 | ALIDRPAPYFERSSSKRYTMSRSL [EPB41L3] | 2.8 ± 0.31 | 3.12 ± 0.58 | – | –
28 | ALKHYVESASSQSGCLRISIQKLS [NECAB1] | 2.05 ± 0.12 | 2.18 ± 0.28 | – | –
29 | APAFRLSLKAKVSDNMSHLMVDFA [FSD1] | 2.28 ± 0.1 | 2.25 ± 0.12 | – | –
30 | APAPAPASSGQHHDFLSDLFSDDY [CEBPB] | 5.13 ± 0.29 | 5.14 ± 0.16 | – | –
31 | APGIGPPEPWPGGCTGDEAESRGH [MYCL] | 4.97 ± 0.55 | 5.51 ± 0.23 | – | –
32 | APGSASSSKVSGVLKKLAQSRRTA [YJU2B] | 3.81 ± 0.3 | 3.87 ± 0.34 | – | –
33 | APRLLKREPDWGDGDAPGSLLPAQ [CEBPD] | 4.87 ± 0.43 | 5.03 ± 0.37 | – | –
34 | AQIDQYVGLVTNQLSHIKAKIRAK [RTN2] | 2.7 ± 0.3 | 2.75 ± 0.28 | – | –
35 | AQKESLQNQHHSASLQASIFSGAA [APBB1IP] | 4.03 ± 0.22 | 3.98 ± 0.26 | – | –
36 | AQNACSEHGATLAVIDSEKDMNFL [CD69] | 4.62 ± 0.29 | 4.78 ± 0.27 | – | –
37 | AQRHRGSAKDGGPQPPDAPQLVSS [PLEKHN1] | 5.04 ± 0.51 | 5.22 ± 0.28 | – | –
38 | ARSESVLLHMPQPVNPELTAGPIT [TRIM43] | 4.31 ± 0.061 | 4.41 ± 0.078 | – | –
39 | ASHSLSPSEHVQGKSPVNMVTVAM [ZNF649] | 3.3 ± 0.29 | 3.21 ± 0.35 | – | –
40 | ASMAPAAALPPVPSPPAAPSVADN [SERTAD1] | 5.3 ± 0.13 | 5.31 ± 0.42 | – | –
41 | ASSASEPQGLFVEALSVPLSLCVS [CLPTM1] | 2.31 ± 0.2 | 2.25 ± 0.36 | – | –
42 | ASSPGNPTALANGTVQAPKQKGD [LPCAT4] | – | – | 5.31 ± 0.21 | 5.22 ± 0.35
43 | ASSPYISSVQSYPGSASLAQSRLE [DLX1] | 3.92 ± 0.18 | 4.13 ± 0.14 | – | –
44 | ATPGGGTGEAARPHKGLNLHPLLS [PCDHGC5] | 3.74 ± 0.17 | 3.83 ± 0.21 | – | –
45 | ATYIFIFIGETLLSMNWAIVADIL [SPNS1] | 3.13 ± 0.39 | 2.68 ± 0.74 | – | –
46 | AVEDGLQQFKQYSRHVTTRAALTY [M1AP] | 3.14 ± 0.42 | 3.1 ± 0.23 | – | –

Row | Sequence | protein stability index [1] | protein stability index [2] | protein stability index (treatment: DMSO, c terminus: native) | protein stability index [3]
47 | AVSCVFLAFVIVLLAHRLRRWHKS [PCDHGA10] | 2.33 ± 0.36 | 1.92 ± 0.23 | – | –
48 | AVTLRCGHNFCRGCVSRCWEVQVS [TRIM35] | 2.62 ± 0.12 | 2.33 ± 0.43 | – | –
49 | AVTPAGVVNKYQINGLQAWLLTHL [DHCR7] | 2.19 ± 0.23 | 2.15 ± 0.16 | – | –
50 | AVVSQMDQEQGSSFQMSEGSEAAV [FAM189A2] | 5.46 ± 0.29 | 5.44 ± 0.17 | – | –
51 | AWKHGNIHLSAPCIYSEVMEALKL [PCMTD1] | 2.28 ± 0.34 | 2.14 ± 0.33 | – | –
52 | AWVANFERPRMNANSLLASPTGLS [CRY1] | 2.64 ± 0.5 | 2.97 ± 0.37 | – | –
53 | CAIASGSELSESAFGYFITACAVI [SLC29A1] | 3.37 ± 0.67 | 3.12 ± 0.34 | – | –
54 | CAIQASLNQGSVFQEYDTDCEVFR [ZNF449] | 2.79 ± 0.82 | 2.67 ± 0.48 | – | –
55 | CAVLDDSIYLVGGYSWSMGAYKSS [KLHL14] | 2.52 ± 0.64 | 2.17 ± 0.64 | – | –
56 | CDECGKIFSQSSALILHQRIHSGK [ZNF396] | 5.51 ± 0.39 | 5.51 ± 0.11 | – | –
57 | CHECGKKFSQNSHLIKHRRTHTGE [ZNF75A] | 5.19 ± 0.29 | 4.72 ± 0.25 | – | –
58 | CKVFGIHKACEVAPLQSVFQGQKT [TRIM63] | 2.81 ± 0.26 | 2.96 ± 0.39 | – | –
59 | CLHMFLQDEIIDKSYTPSKIRHA [SNX3] | – | – | – | 2.77 ± 0.46
60 | CLVFELLSYNLYDLLRNTHFRGVS [DYRK1B] | 2.95 ± 0.3 | 3.3 ± 0.16 | – | –
61 | CRDGEVLLRLSKHGPGHETPMTIP [ACSBG2] | 2.62 ± 0.4 | 2.66 ± 0.63 | – | –
62 | CREQLDIMNDLSNRVWSISQEPDP [TRIM14] | 3.43 ± 0.28 | 3.43 ± 0.21 | – | –
63 | CRFNQDPEAVDEDRSTEPDRLQVF [ATE1] | 4.54 ± 0.18 | 4.55 ± 0.2 | – | –
64 | CRKCIASSGCFMEYLENQVIKDKD [RNF180] | 2.42 ± 0.26 | 2.5 ± 0.41 | – | –
65 | CRLINEDVNEQVMQVLGPEDLQSI [CEP70] | 3.65 ± 0.32 | 3.54 ± 0.28 | – | –
66 | CSNLTPNVPNVCRMYCSDLLNPNL [SPACA3] | 2.62 ± 0.55 | 2.42 ± 0.45 | – | –
67 | CSVFPATDAPEQFISQVTVLKYFS [PLK2] | 2.49 ± 0.55 | 2.56 ± 0.5 | – | –
68 | CTQLGSLSALKHAVLGLYLLVFLI [SCARA5] | 2.16 ± 0.24 | 2.05 ± 0.23 | – | –
69 | CVKNELLPSHPLELSEKNFQLNQD [POMP] | 4.42 ± 0.1 | 4.57 ± 0.14 | – | –

Row | Sequence | protein stability index [1] | protein stability index [2] | protein stability index (treatment: DMSO, c terminus: native) | protein stability index [3]
70 | CVLVPRADLRLGGQPAPPQLLLGR [SMAD6] | 2.5 ± 0.5 | 2.65 ± 0.099 | – | –
71 | CVSRNSHLTSVTSESEQEFLYKTA [CD207] | 3.34 ± 0.51 | 3.81 ± 0.17 | – | –
72 | DAQLLPHHSLQAHFRPRFHPLPTV [TMEM192] | 3.22 ± 0.18 | 3.22 ± 0.16 | – | –
73 | DAVTAALLIPKEDGVITASEDRTI [WDFY1] | 4.7 ± 0.13 | 4.86 ± 0.27 | – | –
74 | DCEMNSPQVPPSQPLRPWAGGDVP [DYRK1B] | 4.32 ± 0.13 | 4.62 ± 0.15 | – | –
75 | DDHSVRVAREDVRESCPPLGLETL [CPXM2] | 4.85 ± 0.37 | 4.92 ± 0.18 | – | –
76 | DEGRLLLEFDLLIFSFGQLPLALV [SOAT2] | 3.16 ± 0.11 | 2.81 ± 0.46 | – | –
77 | DFNLCLFYLPSSPNLSLASEDEEE [SMG5] | 2.85 ± 0.21 | 3.14 ± 0.24 | – | –
78 | DGIRGKVGHARGLHAWQINWPARQ [SPSB4] | 2.8 ± 0.19 | 2.67 ± 0.31 | – | –
79 | DGKLFPSDGFRDCKKGDPKHGKRK [ELF3] | 5.1 ± 0.29 | 5.38 ± 0.26 | – | –
80 | DGLDLDWEYPGSQGSPAVDKERFT [CHIT1] | 4.94 ± 0.21 | 5.04 ± 0.19 | – | –
81 | DGSDFQHRERVAMHYQMSVTLKYE [JAGN1] | 2.62 ± 0.26 | 2.87 ± 0.24 | – | –
82 | DGTGRMPTLKKCEDVARPTQRLWD [GALNT9] | 4.01 ± 0.31 | 4.13 ± 0.19 | – | –
83 | DHMVRMHLYPADFRFDKPKKSRSP [ZNF511] | 3.42 ± 0.38 | 3.77 ± 0.43 | – | –
84 | DIAAGEELLYDYGDRSKASIEAHP [KMT5A] | 5.09 ± 0.2 | 5.28 ± 0.19 | – | –
85 | DIDVQLSSELTDSLRTLKPEGNIL [NOP53] | 4.1 ± 0.29 | 4.06 ± 0.36 | – | –
86 | DILEEEKIYAYPSNITSETGFRTI [TMEM192] | 3.04 ± 0.33 | 3.4 ± 0.25 | – | –
87 | DITQSIEDDPLLDAQLLPHHSLQA [TMEM192] | 4.15 ± 0.22 | 4.1 ± 0.37 | – | –
88 | DKAVEIEELTYIIKQDINSLNKQI [STX5] | 2.91 ± 0.14 | 3.12 ± 0.56 | – | –
89 | DKNISPRENILVSLGAVGEGFHNY [SCD] | 3.23 ± 0.49 | 3.18 ± 0.24 | – | –
